From patent US12539289B2, “Phorbol ester compositions and methods of use for treating or reducing the duration of cytopenia” (BIOSUCCESS BIOTECH CO., LTD., priority 2014, dated 2026) come the findings set out here.

The test system of assay [1] is Drug Induced Cytopenia. In words: Drug induced cytopenia treated by TPA: blood cell counts after DNR + Ara-C. Conditions: n = 10. The class given is in vivo, mice. As for the experimental part:
Ninety (90) adult mice were randomly assigned to 9 groups (10 mice per group). No drug was administered in Control group. Model group was given DNR (6 mg/kg)+Ara-C (150 mg/kg) on Day 0. The rest of the 7 groups were given DNR (6 mg/kg)+Ara-C (150 mg/kg) on Day 0, and each group on Day 7, Day 8, and Day 9 was administered with one of the following drugs: G-CSF (10 μg/kg), EPO (500 IU/kg), TPA (12.5 μg/kg), TPA (25 μg/kg), TPA (50 μg/kg), TPA (12.5 μg/kg)+GCSF (10 μg/kg), or TPA (12.5 μg/kg)+EPO (500 IU/kg).

The test system of assay [2] is Human bone marrow cells from the same AML patient after chemotherapy. Kind of assay: Colony formation of bone marrow hematopoietic cells in methyl cellulose semi-solid culture medium. The class given is cell-based. As for the experimental part: (§1) To explore the effect of TPA alone or combined rhG-CSF on bone marrow hematopoietic cells proliferation and colony formation ability which from patients of acute myeloid leukemia (AML) in the period of bone marrow suppression in vitro and to observe the effect of TPA on bone marrow stromal cells(BMSCs) proliferation or inhibition from patients of AML in the period of myelosuppression and the healthy persons.
• 1) Human bone marrow cells from the same AML patient after chemotherapy were cultured by methyl cellulose semi-solid culture medium. Groups: Blank, TPA (10 ng/ml), G-CSF (50 ng/ml), TPA (10 ng/ml)+GCSF (50 ng/ml). The experiments were repeated for 4 times. • 2) The stroma cells of bone marrow from the healthy human and the AML patient after chemotherapy were cultured by methyl cellulose semi-solid culture medium. Different TPA concentrations were added. Groups: Blank, TPA (0.1 ng/ml), TPA (1.0 ng/ml), TPA (5 ng/ml), TPA (10 ng/ml), TPA (20 ng/ml), TPA (30 ng/ml). • 3) Cultivation of BMSCs from healthy persons and patients of AML in the bone marrow suppression phase in vitro, added to TPA of different concentrations, 0.1 ng/ml, 1.0 ng/ml, 5 ng/ml, 10 ng/ml, 20 ng/ml, 30 ng/ml, and set up a control to detect cell proliferation or inhibition with CCK8 method. Results and Conclusion: • 1. Compared the clones of four groups in incomplete medium, in the control group a small cell clusters can be seen for 24-72 hours, but the cells were dead as time prolong. Cultivated 14 days, control group have no clones formation, CFU-GM are dominated for G-CSF group, TPA alone and combination with G-CSF group have myeloid colony formation, while BFU-E and CFU-GEMM. […] Compared the clones of different concentration of TPA stimulation in incomplete medium, the total clones of 5 ng/ml, 10 ng/ml, 20 ng/ml group are higher than other groups, including 10 ng/ml in the highest, there are statistical significance (both P<0.05). While decreasing or increasing TPA concentration can not improve the colony number. The better concentration of TPA to stimulate the colony formation is 5˜20 ng/ml. […] Compared the clones of different concentration of TPA and G-CSF (50 ng/ml) stimulation in incomplete medium. Combination with G-CSF the better concentration of TPA is 1˜10 ng/ml (both P<0.05). Combination with G-CSF the best concentration of TPA is 5 ng/ml and 1 ng/ml. for CFU-GM and CFU-GEMM. The main clone types are myeloid colones, CFU-GM, also have CFU-GEMM and fewer BFU-E. • 4. […] While TPA group and G-CSF group the number of clones of TPA group and G-CSF group have no statistical significance (P=0.577). • 5. […] Meanwhile, TPA promote bone marroe stromal cells from the AML patients proliferation of concentration 5˜30 ng/ml (cell number 2×10^5/ml). 5 ng/ml of TPA is the best concentration of promoting proliferation, and G-CSF had no effect on the growth of BMSCs from healthy persons or AML patients.

For assay [3], the system named is bone marrow stromal cells (BMSCs) from healthy persons. In words: BMSC proliferation or inhibition, CCK8 method, healthy persons. In kind it is cell-based, human. Particulars: healthy persons. On the procedure:
as §1
(§2) • 1) Human bone marrow cells from the same AML patient after chemotherapy were cultured by methyl cellulose semi-solid culture medium. Groups: Blank, TPA (10 ng/ml), G-CSF (50 ng/ml), TPA (10 ng/ml)+GCSF (50 ng/ml). The experiments were repeated for 4 times. • 2) The stroma cells of bone marrow from the healthy human and the AML patient after chemotherapy were cultured by methyl cellulose semi-solid culture medium. Different TPA concentrations were added. Groups: Blank, TPA (0.1 ng/ml), TPA (1.0 ng/ml), TPA (5 ng/ml), TPA (10 ng/ml), TPA (20 ng/ml), TPA (30 ng/ml). • 3) Cultivation of BMSCs from healthy persons and patients of AML in the bone marrow suppression phase in vitro, added to TPA of different concentrations, 0.1 ng/ml, 1.0 ng/ml, 5 ng/ml, 10 ng/ml, 20 ng/ml, 30 ng/ml, and set up a control to detect cell proliferation or inhibition with CCK8 method. Results and Conclusion: • 1. […]
(In general: Tetrazolium assays rely on reduction of a dye to a coloured formazan, in cell work by metabolically active cells.)

For assay [4], the system named is bone marrow stromal cells (BMSCs) from patients of AML in the bone marrow suppression phase. In words: BMSC proliferation or inhibition, CCK8 method, AML patients. In kind it is cell-based, human. On the procedure:
as §1, §2

Assay [5] relates to neutropenia and thrombocytopenia. In words: AML (M2) patient case after DA regimen chemotherapy. In kind it is in vivo, human. On the procedure: Patient, diagnosed with AML (M2). Patient's bone marrow myeloblast plus promyelocyte count was about 60%. After they received one standard course of DA regimen (7 Ara C+3 Daunorubicin), their peripheral WBC count dropped to 0.8×10^9/L. They were then administered 150 μg G-CSF each day. After chemotherapy, it took 12 days (duration of neutropenia and thrombocytopenia) to bring both their platelet count and WBC count, including the neutrophil count, back to normal. Their bone marrow myeloblast plus promyelocyte count was about 40%, still way above the normal value (0˜5%). Then, they received their second standard course of DA regimen. After the second course of DA regimen, their peripheral WBC count and platelet count dropped to 0.6×10^9/L and 80×10^9/L respectively. They were then administered TPA plus G-CSF (150 μg TPA followed with 150 μg G-CSF) each day of day 1 and day 2. On day 4 and day 5, they were administered with only 150 μg TPA each day. The WBC counts and neutrophil percentage* in parenthesis were 1.8×10^9/L (39%) on day 3, 6.5×10^9/L (72%) on day 7, and 5.7×10^9/L (77%) on day 14. The estimated duration of neutropenia after chemotherapy was shortened to about 5 days. The platelet counts were 330×10^9/L on day 3, 715×10^9/L on day 7, and 568×10^9/L on day 14. The estimated duration of thrombocytopenia after chemotherapy was shortened to less than 3 days. […]

The test system of assay [6] is neutropenia. In words: Duration of neutropenia after high dose chemotherapy. The class given is in vivo. Particulars: stated 'for example'. The source says:
For example, the duration of neutropenia after high dose chemotherapy and treatment with GCSF is, for example, about 24±3 days. The combination of TPA and GCSF reduces the duration of neutropenia to about 15±3 days, or about a 25% to 50% reduction in the duration of neutropenia.

Setting [7] is: 8 days after DNR + Ara-c, 1 day after 1st dose, G-CSF 10, EPO 500, TPA 12.5, TPA + GCSF 12.5 + 10, TPA + EPO 12.5 + 500 (μg·kg^−1).
Setting [8] is: 9 days after DNR + Ara-c, 1 day after 2nd dose, G-CSF 10, EPO 500, TPA 12.5, TPA + GCSF 12.5 + 10, TPA + EPO 12.5 + 500 (μg·kg^−1).
Setting [9] is: 10 days after DNR + Ara-c, 1 day after 3rd dose, G-CSF 10, EPO 500, TPA 12.5, TPA + GCSF 12.5 + 10, TPA + EPO 12.5 + 500 (μg·kg^1).

As for “EPO: erythropoietin, a glycoprotein hormone that controls erythropoiesis, or red blood cell production”, in assay [1] (setting [7]), the PLT was 385 ± 19.28^(1)(1)(2)(2) ×10^9/L, the RBC is 7.32 ± 0.10^(1)(1)(2)(2) ×10^12/L and the WBC is given as 3.7 ± 0.69^(1)(1) ×10^9/L. Further, in assay [1] (setting [8]), the PLT was 935 ± 43.57^(1)(1)(2)(2) ×10^9/L, the RBC is 6.75 ± 0.69^(1)(1)(2) ×10^12/L and the WBC is given as 5.52 ± 0.34^(1)(1) ×10^9/L. In addition, in assay [1] (setting [9]), the PLT is recorded as 1469 ± 75.67^(2)(2) ×10^9/L, the RBC was 8.51 ± 0.86^(1)(1)(2)(2)(3)(3) ×10^12/L and the WBC is recorded as 6.45 ± 0.41^(3)(3) ×10^9/L.

B1: G-CSF: granulocyte-colony stimulating factor, a glycoprotein that stimulates the bone marrow to produce granulocytes and stem cells (protein, UniProt P09919 31-207, looked up)
Granulocyte …: TPLGPASSLPQSFLLKCLEQVRKIQGDGAALQEKLVSECATYKLCHPEELVLLGHSLGIPWAPLSSCPSQALQLAGCLSQLHSGLFLYQGLLQALEGISPELGPTLDTLQLDVADFATTIWQQMEELGMAPALQPTQGAMPAFASAFQRRAGGVLVASHLQSFLEVSYRVLRHLAQP
Take B1: the “colony types whose formation is promoted (CFU-GM, CFU-GEMM, BFU-E)” value in assay [2] (bone marrow of AML patients in the period of bone marrow suppression, in vitro) was “promoted the formation of CFU-GM, but had no effect on CFU-GEMM and BFU-E”. Besides, in assay [2] (incomplete medium, cultivated 14 days, TPA 10 ng/ml, G-CSF 50 ng/ml), the “total number of clones” value is “higher than control group”. Besides, the “effect on the growth of BMSCs” value in assay [3] and in assay [4] was “had no effect” each time. Besides, the PLT was 373 ± 76.27^(1)(1)(2)(2) ×10^9/L in assay [1] (setting [7]), 949 ± 65.88^(1)(1)(2)(2) ×10^9/L in assay [1] (setting [8]) and 1456 ± 91.76^(2)(2) ×10^9/L in assay [1] (setting [9]). The RBC in assay [1] (setting [7]) is 4.94 ± 0.42^(1)(1) ×10^12/L; in assay [1] (setting [8]) it was 5.40 ± 0.46^(1)(1) ×10^12/L; in assay [1] (setting [9]), 5.30 ± 0.34^(1)(1) ×10^12/L. The WBC in assay [1] (setting [7]) is on record as 5.3 ± 0.62^(1)(2)(2) ×10^9/L; in assay [1] (setting [8]) it was 6.95 ± 0.44^(2) ×10^9/L; in assay [1] (setting [9]), 9.14 ± 0.67^(1)(1)(2)(2) ×10^9/L. Further, in assay [5] (after first DA course and 150 μg G-CSF each day), the “bone marrow myeloblast plus promyelocyte count” value is listed as “about 40%”. The “duration of neutropenia and thrombocytopenia” value in assay [5] (after first DA course, 150 μg G-CSF each day) came to 12 days. The duration of neutropenia entry in assay [6] was “about 24±3 days”.
